Biological target: T1, AK7 (human, UniProt Q96M32 1-723)
T1 construct: AK7, human, recombinant protein on the HuProt array; source: bought: HuProt Human Proteome Microarray v4.0, Cambridge Protein Arrays (recombinant protein spotted on the array)
Experiment: peptide or protein array; HuProt Human Proteome Microarray v4.0 (GST proteins spotted) incubated with recombinant PAK6 in 2% BSA, PBS, 0.05% Tween20 for 2 h at RT; detected with anti-PAK6 and fluorophore conjugated secondary antibody; hits by Z score > 2.5
Details: both partners purified

T1 sequence (Q96M32 whole entry): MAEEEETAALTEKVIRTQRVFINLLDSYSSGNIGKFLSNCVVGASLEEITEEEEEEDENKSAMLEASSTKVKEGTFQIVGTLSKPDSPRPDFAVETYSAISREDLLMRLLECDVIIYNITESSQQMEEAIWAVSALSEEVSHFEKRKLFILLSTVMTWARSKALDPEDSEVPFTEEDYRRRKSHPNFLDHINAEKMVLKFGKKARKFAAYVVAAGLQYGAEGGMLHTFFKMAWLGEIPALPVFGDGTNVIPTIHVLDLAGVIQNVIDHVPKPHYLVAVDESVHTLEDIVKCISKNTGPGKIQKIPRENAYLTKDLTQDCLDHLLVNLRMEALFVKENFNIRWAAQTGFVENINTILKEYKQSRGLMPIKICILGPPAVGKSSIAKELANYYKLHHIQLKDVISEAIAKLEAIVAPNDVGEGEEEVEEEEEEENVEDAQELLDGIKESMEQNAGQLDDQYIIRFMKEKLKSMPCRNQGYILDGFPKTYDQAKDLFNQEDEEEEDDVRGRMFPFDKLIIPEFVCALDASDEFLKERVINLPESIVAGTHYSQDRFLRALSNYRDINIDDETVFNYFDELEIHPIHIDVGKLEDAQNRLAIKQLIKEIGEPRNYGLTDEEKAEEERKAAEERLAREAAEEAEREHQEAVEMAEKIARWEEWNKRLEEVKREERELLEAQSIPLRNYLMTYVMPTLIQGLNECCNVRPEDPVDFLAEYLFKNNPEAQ

- binding result: binds
B1: Recombinant full-length human PAK6 (ThermoFisher, #PR5307A) (enzyme, UniProt Q9NQU5 1-681, looked up)
chain: MFRKKKKKRPEISAPQNFQHRVHTSFDPKEGKFVGLPPQWQNILDTLRRPKPVVDPSRITRVQLQPMKTVVRGSAMPVDGYISGLLNDIQKLSVISSNTLRGRSPTSRRRAQSLGLLGDEHWATDPDMYLQSPQSERTDPHGLYLSCNGGTPAGHKQMPWPEPQSPRVLPNGLAAKAQSLGPAEFQGASQRCLQLGACLQSSPPGASPPTGTNRHGMKAAKHGSEEARPQSCLVGSATGRPGGEGSPSPKTRESSLKRRLFRSMFLSTAATAPPSSSKPGPPPQSKPNSSFRPPQKDNPPSLVAKAQSLPSDQPVGTFSPLTTSDTSSPQKSLRTAPATGQLPGRSSPAGSPRTWHAQISTSNLYLPQDPTVAKGALAGEDTGVVTHEQFKAALRMVVDQGDPRLLLDSYVKIGEGSTGIVCLAREKHSGRQVAVKMMDLRKQQRRELLFNEVVIMRDYQHFNVVEMYKSYLVGEELWVLMEFLQGGALTDIVSQVRLNEEQIATVCEAVLQALAYLHAQGVIHRDIKSDSILLTLDGRVKLSDFGFCAQISKDVPKRKSLVGTPYWMAPEVISRSLYATEVDIWSLGIMVIEMVDGEPPYFSDSPVQAMKRLRDSPPPKLKNSHKVSPVLRDFLERMLVRDPQERATAQELLDHPFLLQTGLPECLVPLIQLYRKQTSTC
notes: source: bought: ThermoFisher, #PR5307A
